Laboratory results published in patent US20220403043A1 (YEDA RESEARCH AND DEVELOPMENT, published 2022).

T1: recombinant hFcγRIIB (human, UniProt P31994 43-217, limits assumed)
T1 construct: construct not described; also called human FcγRIIB
T1 sequence (looked up): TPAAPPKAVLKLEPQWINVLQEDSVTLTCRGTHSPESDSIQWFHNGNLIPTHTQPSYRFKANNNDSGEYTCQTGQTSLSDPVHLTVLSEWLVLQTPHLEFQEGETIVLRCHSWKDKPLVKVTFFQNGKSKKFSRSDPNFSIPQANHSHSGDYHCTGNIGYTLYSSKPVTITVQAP

T2: recombinant mouse CD11c (R&D Systems) (mouse, UniProt Q9QXH4 20-1116)
T2 construct: extracellular domain; Bought protein; also called recombinant CD11c
T2 sequence (looked up): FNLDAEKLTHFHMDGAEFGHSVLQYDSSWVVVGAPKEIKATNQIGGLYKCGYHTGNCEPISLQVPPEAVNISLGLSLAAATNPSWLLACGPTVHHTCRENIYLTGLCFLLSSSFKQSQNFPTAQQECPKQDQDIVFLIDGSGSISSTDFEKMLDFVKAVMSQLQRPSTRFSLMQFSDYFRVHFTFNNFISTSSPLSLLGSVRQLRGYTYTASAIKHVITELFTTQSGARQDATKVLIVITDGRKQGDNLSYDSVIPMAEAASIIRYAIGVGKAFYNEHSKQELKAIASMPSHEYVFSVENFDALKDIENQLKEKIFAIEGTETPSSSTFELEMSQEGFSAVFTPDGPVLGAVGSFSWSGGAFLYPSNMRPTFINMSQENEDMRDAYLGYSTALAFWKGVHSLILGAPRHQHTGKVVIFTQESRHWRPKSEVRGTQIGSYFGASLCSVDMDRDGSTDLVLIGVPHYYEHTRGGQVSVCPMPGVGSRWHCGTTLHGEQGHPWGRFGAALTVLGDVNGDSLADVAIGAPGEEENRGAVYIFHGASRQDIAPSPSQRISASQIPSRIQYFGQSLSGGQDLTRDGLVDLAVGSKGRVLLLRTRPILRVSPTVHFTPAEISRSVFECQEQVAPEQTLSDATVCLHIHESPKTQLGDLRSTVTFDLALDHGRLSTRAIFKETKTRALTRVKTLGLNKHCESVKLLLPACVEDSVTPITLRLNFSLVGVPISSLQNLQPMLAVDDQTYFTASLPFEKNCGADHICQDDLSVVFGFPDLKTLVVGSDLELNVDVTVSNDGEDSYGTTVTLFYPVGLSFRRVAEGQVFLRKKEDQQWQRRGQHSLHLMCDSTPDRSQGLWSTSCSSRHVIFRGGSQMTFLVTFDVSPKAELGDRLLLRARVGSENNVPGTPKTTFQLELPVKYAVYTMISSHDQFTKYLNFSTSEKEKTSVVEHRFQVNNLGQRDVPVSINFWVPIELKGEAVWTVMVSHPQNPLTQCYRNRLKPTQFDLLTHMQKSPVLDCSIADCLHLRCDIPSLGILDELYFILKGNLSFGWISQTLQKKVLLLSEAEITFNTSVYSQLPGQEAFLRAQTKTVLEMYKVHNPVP


Legend:
[1] = target: T3, biotinylated human CD40 (Acrobiosystems) (human, UniProt P25942 21-193, biotinylated (site not stated)); experiment: simultaneous binding ELISA (FIG. 4A-D)
T3 construct: also called huCD40
T3 sequence (P25942 21-193 limits assumed): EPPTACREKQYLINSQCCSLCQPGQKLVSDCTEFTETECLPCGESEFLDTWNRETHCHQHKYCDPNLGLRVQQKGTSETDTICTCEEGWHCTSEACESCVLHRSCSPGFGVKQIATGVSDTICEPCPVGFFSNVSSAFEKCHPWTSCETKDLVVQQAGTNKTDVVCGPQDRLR
Protocol: (§1) All sequential steps were performed at room temperature. After being washed, the plates were blocked for 1 hr with 1×PBS with 2% Bovine serum Albumin and were subsequently incubated for 1 hr with serially diluted IgGs (1:5 consecutive dilutions in 1×PBS with 2% Bovine serum Albumin). For dual binding ELISA assay, plates were incubated for 1 hr with biotinylated human CD40 (Acrobiosystems). After washing, plates were incubated for 1 hr with horseradish peroxidase-conjugated anti-human IgG (Jackson ImmunoResearch) or with horseradish peroxidase-conjugated Streptavidin (Biolegend). Detection was performed using a one component substrate solution (TMB) and reactions stopped with the addition of 0.18 M sulphuric acid. Absorbance at 450 nm was immediately recorded using a SpectraMax Plus spectrophotometer (Molecular Devices), and background absorbance from negative control samples was subtracted.

[2] = target: T4, recombinant human DEC-205 (Sino Biological), extracellular domain (human, UniProt O60449 28-1666); experiment: simultaneous binding ELISA (FIG. 4A-D)
T4 construct: extracellular domain; Bought protein
T4 sequence (O60449 28-1666): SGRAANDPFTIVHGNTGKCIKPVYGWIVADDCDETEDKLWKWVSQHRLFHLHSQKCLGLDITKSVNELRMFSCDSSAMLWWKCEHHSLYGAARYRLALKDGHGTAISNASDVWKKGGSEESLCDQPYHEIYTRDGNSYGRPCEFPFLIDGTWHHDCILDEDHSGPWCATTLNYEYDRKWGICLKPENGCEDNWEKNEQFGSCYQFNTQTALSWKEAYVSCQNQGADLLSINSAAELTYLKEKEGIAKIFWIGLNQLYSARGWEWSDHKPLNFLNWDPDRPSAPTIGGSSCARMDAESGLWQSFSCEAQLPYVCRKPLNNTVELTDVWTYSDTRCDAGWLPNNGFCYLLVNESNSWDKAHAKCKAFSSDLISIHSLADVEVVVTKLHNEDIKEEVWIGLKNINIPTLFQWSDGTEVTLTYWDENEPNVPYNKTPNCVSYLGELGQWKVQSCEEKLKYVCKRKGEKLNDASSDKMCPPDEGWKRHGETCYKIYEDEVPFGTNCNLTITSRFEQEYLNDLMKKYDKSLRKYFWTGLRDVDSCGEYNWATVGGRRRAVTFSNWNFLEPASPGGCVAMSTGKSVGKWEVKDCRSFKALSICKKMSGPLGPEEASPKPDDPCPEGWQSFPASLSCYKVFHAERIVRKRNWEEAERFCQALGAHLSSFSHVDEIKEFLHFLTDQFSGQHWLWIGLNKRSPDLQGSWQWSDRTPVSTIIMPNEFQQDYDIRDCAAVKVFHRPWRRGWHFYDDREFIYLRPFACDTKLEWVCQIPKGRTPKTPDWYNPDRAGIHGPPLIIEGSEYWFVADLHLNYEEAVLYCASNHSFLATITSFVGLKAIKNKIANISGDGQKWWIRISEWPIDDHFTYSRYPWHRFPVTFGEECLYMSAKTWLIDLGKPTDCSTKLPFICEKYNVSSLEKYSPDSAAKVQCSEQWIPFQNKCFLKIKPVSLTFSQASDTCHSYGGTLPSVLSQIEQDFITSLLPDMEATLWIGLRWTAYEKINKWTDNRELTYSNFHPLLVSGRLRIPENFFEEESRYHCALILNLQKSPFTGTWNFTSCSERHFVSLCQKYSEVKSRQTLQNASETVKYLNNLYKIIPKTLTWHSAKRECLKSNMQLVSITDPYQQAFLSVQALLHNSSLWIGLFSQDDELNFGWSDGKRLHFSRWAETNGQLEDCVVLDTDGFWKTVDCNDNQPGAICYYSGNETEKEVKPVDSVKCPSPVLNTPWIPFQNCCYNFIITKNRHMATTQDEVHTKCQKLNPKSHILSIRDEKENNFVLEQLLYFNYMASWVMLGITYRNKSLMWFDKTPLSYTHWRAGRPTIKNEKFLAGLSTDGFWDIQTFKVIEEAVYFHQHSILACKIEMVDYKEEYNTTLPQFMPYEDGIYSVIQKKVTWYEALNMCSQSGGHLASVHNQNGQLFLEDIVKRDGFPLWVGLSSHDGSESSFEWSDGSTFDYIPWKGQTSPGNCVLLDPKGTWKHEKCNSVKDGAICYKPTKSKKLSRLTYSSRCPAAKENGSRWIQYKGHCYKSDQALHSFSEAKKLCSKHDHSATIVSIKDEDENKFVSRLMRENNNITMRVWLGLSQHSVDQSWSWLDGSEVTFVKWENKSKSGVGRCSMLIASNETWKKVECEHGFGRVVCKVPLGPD
Protocol: as §1

[3] = target: T5, recombinant human CD40 (Sino Biological), extracellular domain (human, UniProt P25942 21-193); experiment: ELISA titration on coated recombinant huCD40 (FIG. 4A)
T5 construct: also called huCD40; hCD40
T5 sequence (P25942 21-193 limits assumed): as the sequence (P25942 21-193 limits assumed) above
Protocol: as §1

recombinant hFcγRIIB = target: T1, recombinant hFcγRIIB; experiment: ELISA on recombinant hFcγRIIB (FIG. 9B)
[4] = target: T4, recombinant human DEC-205 (Sino …); experiment: ELISA titration on coated recombinant human DEC-205 (FIG. 4B)
Protocol: as §1

[5] = target: T2, recombinant mouse CD11c (R&D Systems); experiment: ELISA titration on coated recombinant mouse CD11c (FIG. 4B)
Protocol: as §1

Row | Binder | binding result (recombinant hFcγRIIB) | binding result [4] | other results
1 | anti-CD40/DEC-205 bispecific Ab (2141/HD-109) (bispecific antibody, Whole human IgG1 bispecific of four chains; Knobs-into-holes: Y349C/T366S/L368A/Y407V on the anti-DC arm and S354C/T366W on the anti-CD40 arm; One arm is in CrossMab CH1-CL format) VH 1: not shown VL 1: DIQMTQSPSSVSASVGDRVTITCRASQGIYSWLAWYQQKPGKAPNLLIYTASTLQSGVPSRFSGSGSGTDFTLTISSLQPEDFATYYCQQANIFPLTFGGGTKVEIKRTVAAPSVFIFPPSDEQLKSGTASVVCLLNNFYPREAKVQWKVDNALQSGNSQESVTEQDSKDSTYSLSSTLTLSKADYEKHKVYACEVTHQGLSSPVTKSFNRGEC VH 2: QVQLTESGPGLVAPSQSLSITCSVSGFSLTNYAINWVRQPPGKGLEWLGIIWTGGGTNYNSTLKSRLSISKDNSKSQVFLKMNSLQTDDTARYYCARVSHDYFYGSSPYYYGMDYWGQGTSVTVSS VL 2: DIQMNQSPSSLSASLGDTITITCHASQNINVWLSWYQQKPGNIPKLLIYKVSNLHTGVPSRFSGSGSGTGFTLTISSLQPEDIATYYCQQGQSYPWTFGGGTKLEIK |  |  | binding result [1]: binds; binding result [2]: binds; binding result [3]: binds
2 | CD40/DEC-205-V11 (bispecific antibody, human IgG1, Human IgG1 Fc with V11 (G237D/P238D/H268D/P271G/A330R); also called IgG1-V11; copies: 1 + 1 + 1 + 1) heavy 1: not shown light 1: DIQMTQSPSSVSASVGDRVTITCRASQGIYSWLAWYQQKPGKAPNLLIYTASTLQSGVPSRFSGSGSGTDFTLTISSLQPEDFATYYCQQANIFPLTFGGGTKVEIKRTVAAPSVFIFPPSDEQLKSGTASVVCLLNNFYPREAKVQWKVDNALQSGNSQESVTEQDSKDSTYSLSSTLTLSKADYEKHKVYACEVTHQGLSSPVTKSFNRGEC heavy 2: QVQLTESGPGLVAPSQSLSITCSVSGFSLTNYAINWVRQPPGKGLEWLGIIWTGGGTNYNSTLKSRLSISKDNSKSQVFLKMNSLQTDDTARYYCARVSHDYFYGSSPYYYGMDYWGQGTSVTVSSASVAAPSVFIFPPSDEQLKSGTASVVCLLNNFYPREAKVQWKVDNALQSGNSQESVTEQDSKDSTYSLSSTLTLSKADYEKHKVYACEVTHQGLSSPVTKSFNRGECDRSEPKSCDKTHTCPPCPAPELLGDDSVFLFPPKPKDTLMISRTPEVTCVVVDVSDEDGEVKFNWYVDGVEVHNAKTKPREEQYNSTYRVVSVLTVLHQDWLNGKEYKCKVSNKALPRPIEKTISKAKGQPREPQVCTLPPSREEMTKNQVSLSCAVKGFYPSDIAVEWESNGQPENNYKTTPPVLDSDGSFFLVSKLTVDKSRWQQGNVFSCSVMHEALHNHYTQKSLSLSPGKSAWSHPQFEK light 2: DIQMNQSPSSLSASLGDTITITCHASQNINVWLSWYQQKPGNIPKLLIYKVSNLHTGVPSRFSGSGSGTGFTLTISSLQPEDIATYYCQQGQSYPWTFGGGTKLEIKSSASTKGPSVFPLAPSSKSTSGGTAALGCLVKDYFPEPVTVSWNSGALTSGVHTFPAVLQSSGLYSLSSVVTVPSSSLGTQTYICNVNHKPSNTKVDKKVEPKSC | binds |  | 
3 | anti-DEC-205 (HD109) monospecific Ab (antibody, V domains shown) VH: QVQLTESGPGLVAPSQSLSITCSVSGFSLTNYAINWVRQPPGKGLEWLGIIWTGGGTNYNSTLKSRLSISKDNSKSQVFLKMNSLQTDDTARYYCARVSHDYFYGSSPYYYGMDYWGQGTSVTVSS VL: DIQMNQSPSSLSASLGDTITITCHASQNINVWLSWYQQKPGNIPKLLIYKVSNLHTGVPSRFSGSGSGTGFTLTISSLQPEDIATYYCQQGQSYPWTFGGGTKLEIK |  | binds | 
4 | CD40/CD11c-V11 (bispecific antibody, human IgG1, Human IgG1 Fc with V11 (G237D/P238D/H268D/P271G/A330R); also called anti-CD40/CD11c bsAb hIgG1-V11; IgG1-V11; copies: 1 + 1 + 1 + 1) heavy 1: not shown light 1: DIQMTQSPSSVSASVGDRVTITCRASQGIYSWLAWYQQKPGKAPNLLIYTASTLQSGVPSRFSGSGSGTDFTLTISSLQPEDFATYYCQQANIFPLTFGGGTKVEIKRTVAAPSVFIFPPSDEQLKSGTASVVCLLNNFYPREAKVQWKVDNALQSGNSQESVTEQDSKDSTYSLSSTLTLSKADYEKHKVYACEVTHQGLSSPVTKSFNRGEC heavy 2: EVQLVEKGGGLVQPGKSLKLSCAASGFTFSEYWMNWVRQAPGKGLEWVGVIKYKYSNYATEYAESVKGRFTISRDDSKSSVYLQMNNLRAEDTAIYYCARTWENWYFDFWGQGTQVTVSSASVAAPSVFIFPPSDEQLKSGTASVVCLLNNFYPREAKVQWKVDNALQSGNSQESVTEQDSKDSTYSLSSTLTLSKADYEKHKVYACEVTHQGLSSPVTKSFNRGECDRSEPKSCDKTHTCPPCPAPELLGDDSVFLFPPKPKDTLMISRTPEVTCVVVDVSDEDGEVKFNWYVDGVEVHNAKTKPREEQYNSTYRVVSVLTVLHQDWLNGKEYKCKVSNKALPRPIEKTISKAKGQPREPQVCTLPPSREEMTKNQVSLSCAVKGFYPSDIAVEWESNGQPENNYKTTPPVLDSDGSFFLVSKLTVDKSRWQQGNVFSCSVMHEALHNHYTQKSLSLSPGKSAWSHPQFEK light 2: DIQMTQSPSSLPASLGDRVTIHCQASQDISNYLTWYQQKPGKAPKLLIYETNKLADGVPSRFSGSGSGRDYSFTISSLESEDVGSYYCQHYYDYPRTFGPGTKLDLKSSASTKGPSVFPLAPSSKSTSGGTAALGCLVKDYFPEPVTVSWNSGALTSGVHTFPAVLQSSGLYSLSSVVTVPSSSLGTQTYICNVNHKPSNTKVDKKVEPKSC | binds |  | 
5 | anti-CD40 (2141) monospecific Ab (antibody, V domains shown, 2141 variable regions cloned on human IgG1 / human kappa backbones; also called clone 21.4.1; CD40 mAb) VH: not shown VL: DIQMTQSPSSVSASVGDRVTITCRASQGIYSWLAWYQQKPGKAPNLLIYTASTLQSGVPSRFSGSGSGTDFTLTISSLQPEDFATYYCQQANIFPLTFGGGTKVEIKR |  | no binding | binding result [5]: no binding
